We go through 41 sequences from the nanobody polyreactivity screen of Harvey et al. (2022).

The nature of this data set: yeast display, Sf9 membrane polyspecificity reagent, FACS + sequencing; frameworks hold sequencing errors. The method in brief:
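A nanobody's polyreactivity label depends on the gate it was sorted from. Yeast display cells were stained with 10% biotinylated, detergent-solubilized Sf9 membrane reagent for 1 hour at 4 °C, enriched on streptavidin microbeads and sorted by FACS. The low and high (top ~1%) gates were set on anti-HA fluorescence for expression and streptavidin fluorescence for reagent binding.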
Take “QVQLVESGGGLVQAGGILRLSCAASGSIFPGYAMGWYRQAPGKERELVAAISTSGGSTYADSVKGRFTISRDNAKNTVYLQMNSLKPEDTAVYYCAATYTYTSPVYYSLDGPWPYDYWGQGTQVTVSS”: the “polyreactivity (PSR sort gate)” value is given as “low polyreactivity”.

In the case of “RVQLQESGGGLVQAGGSLRLSCAASGTIFIRGDMGWYRQAPGKEREFVATIDTGSNTYYADSEKGRFTISRDNATNAVYLHMNCLKPGDTAFYYCVVDYQLSGRLRYWGQGTQVTLSS”, the “polyreactivity (PSR sort gate)” value is “low polyreactivity”.

As for “QVQLVESGGGLVQAGGSLRLSCAASGFIFSPYAMGWYRQAPGKERELVAAISSGVGTRTYYADSVKGRFTISRDNAKNNVYLQINSLKPEDTAVYYCAARIPAWRAAERGGYWGQGTQVTVSS”, the “polyreactivity (PSR sort gate)” value is “high polyreactivity”.

Take “QVQLVESGGGLVQAGGSLRLSCAASGRTFIPYAMGWYRQAPGKERELVAAIRTTGGSTNYADSVKGRFTISRDNAKNTVYLQMNSLKPEDTAVYYCAATSRQRPYDYWGQGTQVTVSS”: the “polyreactivity (PSR sort gate)” value was “high polyreactivity”.

On to “QVQLVESGGGLVQAGGSLRLSCAASGIILPYYAMGWYRQAPGKERELVASISQSGSSTYYADSVKGRFTISRDNAKNTVYLQMNSLKPEDTAVYYCNAKPGSWYIRYDYWGQGTQVTVSS”, for which the “polyreactivity (PSR sort gate)” value is recorded as “low polyreactivity”.

As for “QVQLEESGGGLVQAGGSLRLSCAASGITIRIYAKGCYRQAPGKERELVAGISSSGSTNYADSVKGRFTISRDNAKNTVYLQMNSLKPEDTAVYYCAADAFYIFDYWGQGTQVTVSS”, the “polyreactivity (PSR sort gate)” value was “high polyreactivity”.

With “QVQLVESGGGLVQAGGSLRLSCAASGRIFSVNAMGWYRQAPGKERELVAAITPGASTNYADSVKGRFTISRDNAKNTVYLQMNSLKPEDTAVYYCAAGWVSFEDWVLGSYYEYDYWGQGTQVTVSS”, the “polyreactivity (PSR sort gate)” value was “low polyreactivity”.

As to “QVQLVESGGGLVQAGGSLRLSCAASGITFYGYAMGWYRQAPGKERELVAAISKSGGSTHYADSVKGRFTISRDNAKNTVYLQMNSLKPEDTAVYYCATEGYYYYTSYDYWGQGTQVTVSS”, the “polyreactivity (PSR sort gate)” value was “low polyreactivity”.

On to “QVQLVESGGGLVQAGGSLRLSCAASGFIFVGNDMGWYRQAPGKERELVAAISSGGTTNYADSVKGRFTISRDNAKNTVYLQMNSLIPEDTAVYYCAADYDYRQGYDSVHLDYWGQGTQVTVSS”, for which the “polyreactivity (PSR sort gate)” value was “low polyreactivity”.

“QVQLVESGGGLVQAGGSLRLSCAASGSILGVYTMGWYRQAPGKERELVAAITSSSSSTYADSVKGRFTISRDNAKNTVYLQMNSLKPEDTAVYYCATRGWSKQLYGGYTQYYYWGQGTQVTVSS”: the “polyreactivity (PSR sort gate)” value is reported as “high polyreactivity”.

Turning to “QVQLLESGGGLVQAGGSLRLSCAASGFTFYRYAMGWYRQAPGKERELVAVISGSGTSTYYADSVKGRFTISRDIAKNTVYLQMNSLKQEDTAVYYCAASQSIFSGHVRYRVDYDSWGQGTQVSVSS”, the “polyreactivity (PSR sort gate)” value is “high polyreactivity”.

With “QVQLQESGGGLVQAGGSLRLSCAASGTIFCLWAMGWYCQAPGKERELVASISSGGTTYHADSVKGRFTISRDNAKNTVYLQMNSLKPEDTAVYYSAAFYVATAKLGYWGQGSQVTVSS”, the “polyreactivity (PSR sort gate)” value is “low polyreactivity”.

In the case of “QVQLVESGGGLVQAGGSLRLSCAASGITFVAYAMGWYRQAPGKERELVAAISKSGGNTYYADSVKGRFTISRDNAKNTVYLQMNSLKPEDTAVYYCAAPRRYAWGQVNYWGQGTQVTVSS”, the “polyreactivity (PSR sort gate)” value is reported as “high polyreactivity”.

Take “QVQLVESGGGLVQAGGSLRLSCAASGSTIIAYAMGWYRQAPGKERELVAAITTGDSTNYADSVKGRFTISRDNAKNTVYLQMNSLKPEDTAVYYCNADATDFHFLSEIGSSQEGDYWGQGTQVTVSS”: the “polyreactivity (PSR sort gate)” value is recorded as “low polyreactivity”.

Take “QVQLVESGGGLVQAGGSLRLSCAASGSIFGFNAMGWYRQAPGKERELVAGITSGDRTNYADSVKGRFTISRDNAKNTVYLQMNSLKPEDTAVYYCAARKYVFFKMYYWGQGTQVTVSS”: the “polyreactivity (PSR sort gate)” value is “low polyreactivity”.

Take “QVQLVESGGGLVQAGGSLRLSCAASGYIFYANAMGWYRQPPGKERELVAAISWSGGSTYYADSVKGRFTISRDNAKNTVYLQMNSLKPEDTAVYYCAAAYYETPWDYYYWGQGTQVTVSS”: the “polyreactivity (PSR sort gate)” value is “low polyreactivity”.

“QVQLVESGGGLVQAGGSLRLSCAASGFIFTRYAMGWYRQAPGKERELVAAISWSGGSTYYADSVKGRFTISRDNAKNTVYLQMNSLKPEDTAVYYCAADGSDSYDYWGQGTQVTVSS”: the “polyreactivity (PSR sort gate)” value is reported as “low polyreactivity”.

Regarding “QVQLVESGGGLVQAGGSLRLSCAASGGTVWYYTMGWYRQAPGKERELVARITGGSRTNYADSVNGRFTISRDNAKNTVYLQMNSLKPEDTAVYYCARTSWSGVSYDYWGQGTQVTVSS”, the “polyreactivity (PSR sort gate)” value was “high polyreactivity”.

“QVQLVESVGGLVQAGGSHRLSCAASGRTFQSNGMGWYRHAPGKERELDAAITWSSGTTYYADSVKGRFTISRDNAKNTVYLQMNSLKPEDTAVYYCAADCGHRNCLYYSGFGYWGQGTQVTVSS”: the “polyreactivity (PSR sort gate)” value is “low polyreactivity”.

“QVQLVESGGGLVQAGGSLRLSCAASGITFYGYAMGWYRQAPGKERELVATISSGGGTNYADSVKGRFTISRDNAKNTVYLQMNSLKPEDTAVYYCATDLSTVDYNYWGQGTQVTVSS”: the “polyreactivity (PSR sort gate)” value is given as “low polyreactivity”.

As to “QVQLVESAGGLVQAGGSLRLSSAASGIIFSEYAMGWYRPAPGKERELVAAISKSGGRTYYADSVKGRFTISGVNAKNTVDLQMNSLKPEDTAVYYCAARHAPILGDHGMKYWGQGTQVTVSS”, the “polyreactivity (PSR sort gate)” value is “high polyreactivity”.

“QVQLVESGGGLVQAGGSLRLSCAASGRTFAINAMGWSRQAPGKEWELVASIRWTDGTTYYADSVKGRFTISRDNAKNTVYLQMNSLKPEDTAVYYCAADAEGSASKYDYWGQGTQVTVSS”: the “polyreactivity (PSR sort gate)” value is listed as “low polyreactivity”.

Consider “QVQLVESGGGLVQAGGSLRLSCAASGFTLWLNAMGWYRRAPGKERELVAAITTSDDGTYYADSVKGRFTISRDNAKNTVYLQMNSLKPEDTAVYYCAADYYSVLYDYWGQGTQVTVSS”, for which the “polyreactivity (PSR sort gate)” value was “low polyreactivity”.

As for “QVQLVESGGGLVQAGGSLRLSCAASGSIFLEYAMGWYRQAPGKERELVAAISSSGGSTYYADSVKGRFTISRDNAKYTVYLQMNSLKPEDTAVYYCAAGGHYYSSPGYNYWGQGTQVTVSS”, the “polyreactivity (PSR sort gate)” value was “high polyreactivity”.

Take “QVQIVESGGGLVQAGGSLRLRCAASGRTFRDNAMGWSRQAPGKERELVAAIDIDSSTYYADSVKGRFTISRDNAKNTVYLQMISLKPEDTAVYYCAAESYHDGIGFPDYEYWGQGTQVTVSS”: the “polyreactivity (PSR sort gate)” value is “low polyreactivity”.

Turning to “QVQLVESGGGLVQAGGSLRLSCAASGRIFPYYAMGWYRQAPGKEREFVAAITRRGTSTYYADSVKGRFTISRDNAKNTVYLQMNSLKPEDTAVYYCNKDIISLSRSYGYWGQGTQVTVSS”, the “polyreactivity (PSR sort gate)” value is “high polyreactivity”.

“QVQLVESGGGLVQAGGSLRLSCAASGFTFLGNAMGWYRQAPGKERELVATITSGGNTKYADSVKGRFTISRDNAKNTVYFQINSLKPEDTAVYYFARDRKRQADDICEFDYWGQGSQVTVSS”: the “polyreactivity (PSR sort gate)” value is “low polyreactivity”.

Turning to “QVQLVESGGGLVQAGGSLRLSCAASGRIFVGYTMGWYRQAPGKERELVASISWSGASTYYADSVKGRFTISRDNAKNTVYLQMNSLKPEDTAVYYCAARYYKYYNSYDYWGQGTQVTVSS”, the “polyreactivity (PSR sort gate)” value was “high polyreactivity”.

As for “QVQLVESGGGLVQAGGSLRLSCAASGRIFRWYALGWYRQAPGKERELVAAISSRGGSTYYADSVKGRFTISRDNAKNTVYLQLNSLKPEDTAVYYCAADTSGWQPRYDYWGQGTQVTVSS”, the “polyreactivity (PSR sort gate)” value is “high polyreactivity”.

As to “QVQLQESGGGLVLAGGSLRLNCAESGYISWSFTMGWYRKPTGKEREFVAGITYGGITYYADSVKGRFTISRDNAKNTVYLEMNRLKPEDTAVYYCAAPQSYPYVYVYWGQGTEVTVSS”, the “polyreactivity (PSR sort gate)” value was “high polyreactivity”.

With “QVQLVESGGGLVQAGGSLRLSCAASGSTFGVYAMGWYRQAPAKEMELVARITWSGGSTDYADSVKGRFTISRDNAKNTVYLQMNSLKPEDTAVYYCAARAWWDWYSPRWYYYWGQGTQVTVSS”, the “polyreactivity (PSR sort gate)” value was “high polyreactivity”.

On to “QLQLVESGGGLVQAGGSLRISCAASRSTFENNAMGWYRQAPGKERELVASSTNYADSVKGRFTISRDNAKNTVYLQMNSLKPEDTAVYYCAREQGVNRNHDYWGQATQVTVSS”, for which the “polyreactivity (PSR sort gate)” value was “low polyreactivity”.

“QVQLVESGGGLVQAGGSLRLSCAASGRIFRPYAMGWYRQAPGKERELVATITGSGGTTYYADSVKGRFTISRDNAKNSVYFQMNSLKPEDTAVYYCNVDPRSDIIPMDYWGQGTQVTVSS”: the “polyreactivity (PSR sort gate)” value was “low polyreactivity”.

Consider “QVQLVESGGGLVQAGGSLRLSCAASGSTFYTYAMGWYRQAPGKECELVAAISNRGGSTRYADSVKGRFTISRDNAKNTVYLQMNSLKPEDTAVYYCAAQRIRRGWYGYWGPGTQVTVSS”, for which the “polyreactivity (PSR sort gate)” value is listed as “high polyreactivity”.

Take “QVQLVESGGGLVQAGGSLRLSCAASGFTFDRNAMGWYRQAPGKERGFVAAISSSGGRTYYADSVKGRFTISRDNAKITVYLEMNSLKQEDTALYYCAADFVSRPSAYGSSYYWGQGTQVTVSS”: the “polyreactivity (PSR sort gate)” value was “high polyreactivity”.

For the sequence “QVQLVESGGGLVQAGGSLRLSCAASGRIFKWYAMGWYRQAPGKERELVAAISRSGGTTYYADSVKGRFTISSDNAKNTDYLQMNSLKPEDTAVYYCATRNIYFSTVDYWGQGTQVTVSS”, the “polyreactivity (PSR sort gate)” value is recorded as “high polyreactivity”.

Consider “QVQLVESGGGLVQAGGSLRLTCAASGSTSYSNAMGWYRQAPGKERELVAAINRRGDSTYYADSVKGRFTISRDNAKNTVYLQMNSLKPEDTAVYYCNKVVRVYLGRFQYYSWGQGTQVTVSS”, for which the “polyreactivity (PSR sort gate)” value is given as “high polyreactivity”.

Regarding “QVQLVESGGGLVQAGGSLRLSSAASGRTFPTYTIGGYRQAPGKERELVAAITRGGSTKYADSVKGRFTISRDNAKNTVYLQMNSLKPEDTAVYYCAAVYRYRHSFAYYRHEMDYWGQGTQVTVSS”, the “polyreactivity (PSR sort gate)” value is recorded as “low polyreactivity”.

As for “QVQLVESVVGLVQAGGSLRLSCAASGRIFYRYAMGWYRQAPGKERELVASITRSGITHYADSVKGRFTISRDNAKNTVYLQMNSLKPEDTAVYYCYARRGSPAPYDYWGQGTQVTVSS”, the “polyreactivity (PSR sort gate)” value is recorded as “high polyreactivity”.

For the sequence “QVQLVESGGGLDQAGGSLRLSCAASGSTFWVNTMGWYRQAPGKERELVAGITSNGGSTSYADSVKGRFTISRDNAKNSVYLQMNSLKREDTAVYYCNADTYPDYWAYLYDYWGQGTQVTVSS”, the “polyreactivity (PSR sort gate)” value is “low polyreactivity”.

In the case of “QVQLVESGGGLVQAGGSLRLSCAASGSTFYPYAMGWYRPAPGKERELVASITLRGSSTYYADSVKGRFTISRDNAKNTVYLQMNSLKPEDTAVYYCAKEGYLYLWRYDYWGQGTQVTVSS”, the “polyreactivity (PSR sort gate)” value is recorded as “high polyreactivity”.
